Test results published in patent US20230265170A1.

Legend:
Experiment in all cases: cell-based or functional assay
[1] = biological target: SARS-CoV-2 Omicron BA.2 spike (S) protein (SARS-CoV-2)
[2] = biological target: SARS-CoV-2 Omicron BA.3 spike (S) protein (SARS-CoV-2)
[3] = biological target: SARS-CoV-2 Omicron BA.1 spike (S) protein (SARS-CoV-2)

Sequence of AZD8895 (antibody) (VH): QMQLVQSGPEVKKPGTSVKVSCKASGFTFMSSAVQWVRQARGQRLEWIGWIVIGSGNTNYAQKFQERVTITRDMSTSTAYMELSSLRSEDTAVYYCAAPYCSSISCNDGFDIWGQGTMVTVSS
Sequence of AZD8895 (antibody) (VL): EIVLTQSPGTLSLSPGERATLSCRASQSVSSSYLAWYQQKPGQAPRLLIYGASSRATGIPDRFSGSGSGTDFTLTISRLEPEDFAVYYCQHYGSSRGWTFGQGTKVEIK

Row | Substance | IC50, pseudoviral neutralization [1] | IC50, pseudoviral neutralization [2] | IC50, pseudoviral neutralization [3]
1 | ADG30 (antibody) | > 10 µg/mL | > 10 µg/mL | > 10 µg/mL
2 | ADG10 (antibody) | > 10 µg/mL | > 10 µg/mL | > 10 µg/mL
3 | REGN10987 (antibody) | 0.516 µg/mL | > 10 µg/mL | > 10 µg/mL
4 | Ly-CoV1404 (antibody) | 0.001 µg/mL | 0.002 µg/mL | 0.002 µg/mL
5 | Ly-CoV555 (antibody) | > 10 µg/mL | > 10 µg/mL | > 10 µg/mL
6 | ADG20 (antibody) | > 10 µg/mL | > 10 µg/mL | 0.348 µg/mL
7 | AZD1061 (antibody) | 0.008 µg/mL | 0.019 µg/mL | 0.308 µg/mL
8 | Ly-CoV16 (antibody) | > 10 µg/mL | > 10 µg/mL | > 10 µg/mL
9 | REGN10933 (antibody) | > 10 µg/mL | > 10 µg/mL | > 10 µg/mL
10 | S309 (antibody) | 0.638 µg/mL | 0.311 µg/mL | 0.313 µg/mL
11 | AZD8895 (antibody) | 1.33 µg/mL | > 10 µg/mL | 0.246 µg/mL
